# Results published in article PMC7337384 (bioRxiv, 2020).
# T1: MERS-CoV receptor-binding domain fused to the Fc domain of human IgG1 (MERS-CoV, UniProt K9N5Q8 381-587)
# T1 sequence: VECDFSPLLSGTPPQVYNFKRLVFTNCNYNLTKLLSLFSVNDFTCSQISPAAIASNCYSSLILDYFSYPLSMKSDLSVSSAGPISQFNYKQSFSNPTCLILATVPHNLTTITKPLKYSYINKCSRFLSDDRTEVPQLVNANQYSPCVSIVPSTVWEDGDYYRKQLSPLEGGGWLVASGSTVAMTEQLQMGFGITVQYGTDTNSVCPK
# B1: soluble monomeric human ACE2-NN (enzymatically inactive human ACE2 lacking its active-site histidines) (domain or fragment)
# chain: QSTIEEQAKTFLDKFNHEAEDLFYQSSLASWNYNTNITEENVQNMNNAGDKWSAFLKEQSTLAQMYPLQEIQNLTVKLQLQALQQNGSSVLSEDKSKRLNTILNTMSTIYSTGKVCNPDNPQECLLLEPGLNEIMANSLDYNERLWAWESWRSEVGKQLRPLYEEYVVLKNEMARANHYEDYGDYWRGDYEVNGVDGYDYSRGQLIEDVEHTFEEIKPLYEHLHAYVRAKLMNAYPSYISPIGCLPAHLLGDMWGRFWTNLYSLTVPFGQKPNIDVTDAMVDQAWDAQRIFKEAEKFFVSVGLPNMTQGFWENSMLTDPGNVQKAVCHPTAWDLGKGDFRILMCTKVTMDDFLTAHNEMGNIQYDMAYAAQPFLLRNGANEGFHEAVGEIMSLSAATPKHLKSIGLLSPDFQEDNETEINFLLKQALTIVGTLPFTYMLEKWRWMVFKGEIPKDQWMKKWWEMKREIVGVVEPVPHDETYCDPASLFHVSNDYSFIRYYTRTLYQFQFQEALCQAAKHEGPLHKCDISNSTEAGQKLFNMLRLGKSEPWTLALENVVGAKNMNVRPLLNYFEPLFTWLKDQNKNSFVGWSTDWSPYEPEA
# Target: T1, MERS-CoV receptor-binding domain fused …
# Experiment: SPR
binder,measurement,value
B1,Kd,> 35 µM
